In this test the target is yeast-displayed E4 peptide. As to the kind of experiment: flow cytometry on cells; E4 displayed on yeast cells; FITC-K4-TAMRA added at 100 nM, 15 min, 4 °C, PBS containing 5% immunoblock, two washings; 488 nm laser, 525/50 and 585/30 filters. (In flow cytometry, cells or beads pass a laser one at a time.)

No end group written: not given here. *: point of attachment. FITC = O=C1OC2(c3ccc(O)cc3Oc3cc(O)ccc32)c2ccc(NC(=S)*)cc21

As for {FITC}-KIAALKEKIAALKEKIAALKEKIAALKEC(5‑TAMRA C6 maleimide) [FITC-K4-TAMRA], the mean FITC and TAMRA fluorescence stood at 10000.

The values above are taken from publication PMC8604967.
